# Numbering of substitutions follows the chain as printed. Names may count otherwise.
# B1: *mFMO (PTDH-*mFMO; mFMO M15L/S23A) (Methylophaga thalassica; M15L/S23A/W319A) (protein)
# chain: MATRIAILGAGPSGLAQLRAFQAAQEKGAEIPELVCFEKQADWGGQWNYTWRTGLDENGEPVHSSMYRYLWSNGPKECLEFADYTFDEHFGKPIASYPPREVLWDYIKGRVEKAGVRKYIRFNTAVRHVEFNEDSQTFTVTVQDHTTDTIYSEEFDYVVCCTGHFSTPYVPEFEGFEKFGGRILHAHDFRDALEFKDKTVLLVGSSYSAEDIGSQCYKYGAKKLISCYRTAPMGYKWPENWDERPNLVRVDTENAYFADGSSEKVDAIILCTGYIHHFPFLNDDLRLVTNNRLWPLNLYKGVVWEDNPKFFYIGMQDQAYSFNMFDAQAWYARDVIMGRLPLPSKEEMKADSMAWREKELTLVTAEEMYTYQGDYIQNLIDMTDYPSFDIPATNKTFLEWKHHKKENIMTFRDHSYRSLMTGTMAPKHHTPWIDALDDSLEAYLSDKSEIPVAKEA
# notes: N-terminal fusion to phosphite dehydrogenase (PTDH, cofactor regeneration; pCRE3-mFMO), Ni-Sepharose purified from E. coli NEB10beta
# B2: *mFMO (PTDH-*mFMO; mFMO M15L/S23A) (Methylophaga thalassica; C78A/M15L/S23A) (protein)
# chain: B1 chain with C78A, A319W
# notes: as for B1
# B3: *mFMO (PTDH-*mFMO; mFMO M15L/S23A) (Methylophaga thalassica; C78V/M15L/S23A) (protein)
# chain: B1 chain with C78V, A319W
# notes: as for B1
# B4: *mFMO (PTDH-*mFMO; mFMO M15L/S23A) (Methylophaga thalassica; C78L/M15L/S23A) (protein)
# chain: B1 chain with C78L, A319W
# notes: as for B1
# B5: *mFMO (PTDH-*mFMO; mFMO M15L/S23A) (Methylophaga thalassica; M15L/S23A/W319F) (protein)
# chain: B1 chain with A319F
# notes: as for B1
# B6: *mFMO (PTDH-*mFMO; mFMO M15L/S23A) (Methylophaga thalassica; M15L/S23A/Y207W) (protein)
# chain: B1 chain with Y207W, A319W
# notes: as for B1
# B7: *mFMO (PTDH-*mFMO; mFMO M15L/S23A) (Methylophaga thalassica; C78I/M15L/S23A) (protein)
# chain: B1 chain with C78I, A319W
# notes: as for B1
# B8: *mFMO (PTDH-*mFMO; mFMO M15L/S23A) (Methylophaga thalassica; M15L/S23A/W319A/Y207W) (protein)
# chain: B1 chain with Y207W
# notes: as for B1
# B9: *mFMO (PTDH-*mFMO; mFMO M15L/S23A) (Methylophaga thalassica; C78I/M15L/S23A/W319A/Y207W) (protein)
# chain: B1 chain with C78I, Y207W
# notes: as for B1
# B10: *mFMO (PTDH-*mFMO; mFMO M15L/S23A) (Methylophaga thalassica; M15L/S23A) (protein)
# chain: B1 chain with A319W
# notes: as for B1
# Substrate: c1ccc2[nH]ccc2c1
# Assay: purified protein
# Format: biochemical, Methylophaga thalassica
# Conditions: NADPH; indole up to 1.6 mM
Protein,Km,kcat
B1,900 µM,0.42 s⁻¹
B2,400 µM,0.79 s⁻¹
B3,700 µM,1.04 s⁻¹
B4,800 µM,0.7 s⁻¹
B5,400 µM,0.64 s⁻¹
B6,100 µM,0.31 s⁻¹
B7,800 µM,1.28 s⁻¹
B8,800 µM,0.8 s⁻¹
B9,800 µM,0.93 s⁻¹

# Same assay, conditions: NADPH; indole up to 1.6 mM; listed as printed as WT, table title says *mFMO
Protein,Km,kcat
B10,400 µM,0.85 s⁻¹
